{
  "source": "patent US20230002496A1",
  "about": "(STAIDSON BEIJING BIOPHARMACEUTICALS, published 2023)",
  "binders": {"B1": {"name": "E35-scFv HT30Q (scFv, V domains shown)", "VH": "QMQLVQSGAEVKKPGASVKVSCKVSGYTLQELSIHWVRQAPGKGLEWMGGFDPEDGETIYAQKFQGRVTMTGDTSTDTAYLELSSLRSEDTALYYCATGRYTSLATTYGFDYWGQGTLVTVSS", "VL": "EIVMTQSPATLSLSPGERATLSCRASQSVSSYLAWYQQKPGQAPRLLIYGASSRATGIPDRFSGSGSGTDFTLTISRLEPEDFAVYYCQQYDNWPYTFGQGTKLEIK"}, "B2": {"name": "E35-scFv HT30G (scFv, V domains shown)", "VH": "QMQLVQSGAEVKKPGASVKVSCKVSGYTLGELSIHWVRQAPGKGLEWMGGFDPEDGETIYAQKFQGRVTMTGDTSTDTAYLELSSLRSEDTALYYCATGRYTSLATTYGFDYWGQGTLVTVSS", "VL": "EIVMTQSPATLSLSPGERATLSCRASQSVSSYLAWYQQKPGQAPRLLIYGASSRATGIPDRFSGSGSGTDFTLTISRLEPEDFAVYYCQQYDNWPYTFGQGTKLEIK"}, "B3": {"name": "E35-scFv HT30S (scFv, V domains shown)", "VH": "QMQLVQSGAEVKKPGASVKVSCKVSGYTLSELSIHWVRQAPGKGLEWMGGFDPEDGETIYAQKFQGRVTMTGDTSTDTAYLELSSLRSEDTALYYCATGRYTSLATTYGFDYWGQGTLVTVSS", "VL": "EIVMTQSPATLSLSPGERATLSCRASQSVSSYLAWYQQKPGQAPRLLIYGASSRATGIPDRFSGSGSGTDFTLTISRLEPEDFAVYYCQQYDNWPYTFGQGTKLEIK"}, "B4": {"name": "E35-scFv HT30A (scFv, V domains shown)", "VH": "QMQLVQSGAEVKKPGASVKVSCKVSGYTLAELSIHWVRQAPGKGLEWMGGFDPEDGETIYAQKFQGRVTMTGDTSTDTAYLELSSLRSEDTALYYCATGRYTSLATTYGFDYWGQGTLVTVSS", "VL": "EIVMTQSPATLSLSPGERATLSCRASQSVSSYLAWYQQKPGQAPRLLIYGASSRATGIPDRFSGSGSGTDFTLTISRLEPEDFAVYYCQQYDNWPYTFGQGTKLEIK"}, "B5": {"name": "E35-scFv HT30K (scFv, V domains shown)", "VH": "QMQLVQSGAEVKKPGASVKVSCKVSGYTLKELSIHWVRQAPGKGLEWMGGFDPEDGETIYAQKFQGRVTMTGDTSTDTAYLELSSLRSEDTALYYCATGRYTSLATTYGFDYWGQGTLVTVSS", "VL": "EIVMTQSPATLSLSPGERATLSCRASQSVSSYLAWYQQKPGQAPRLLIYGASSRATGIPDRFSGSGSGTDFTLTISRLEPEDFAVYYCQQYDNWPYTFGQGTKLEIK"}, "B6": {"name": "E35-scFv HT30R (scFv, V domains shown)", "VH": "QMQLVQSGAEVKKPGASVKVSCKVSGYTLRELSIHWVRQAPGKGLEWMGGFDPEDGETIYAQKFQGRVTMTGDTSTDTAYLELSSLRSEDTALYYCATGRYTSLATTYGFDYWGQGTLVTVSS", "VL": "EIVMTQSPATLSLSPGERATLSCRASQSVSSYLAWYQQKPGQAPRLLIYGASSRATGIPDRFSGSGSGTDFTLTISRLEPEDFAVYYCQQYDNWPYTFGQGTKLEIK"}, "B7": {"name": "E35-scFv HT28H (scFv, V domains shown)", "VH": "QMQLVQSGAEVKKPGASVKVSCKVSGYHLTELSIHWVRQAPGKGLEWMGGFDPEDGETIYAQKFQGRVTMTGDTSTDTAYLELSSLRSEDTALYYCATGRYTSLATTYGFDYWGQGTLVTVSS", "VL": "EIVMTQSPATLSLSPGERATLSCRASQSVSSYLAWYQQKPGQAPRLLIYGASSRATGIPDRFSGSGSGTDFTLTISRLEPEDFAVYYCQQYDNWPYTFGQGTKLEIK"}, "B8": {"name": "E35-scFv HT28V (scFv, V domains shown)", "VH": "QMQLVQSGAEVKKPGASVKVSCKVSGYVLTELSIHWVRQAPGKGLEWMGGFDPEDGETIYAQKFQGRVTMTGDTSTDTAYLELSSLRSEDTALYYCATGRYTSLATTYGFDYWGQGTLVTVSS", "VL": "EIVMTQSPATLSLSPGERATLSCRASQSVSSYLAWYQQKPGQAPRLLIYGASSRATGIPDRFSGSGSGTDFTLTISRLEPEDFAVYYCQQYDNWPYTFGQGTKLEIK"}, "B9": {"name": "E35-scFv HT28E (scFv, V domains shown)", "VH": "QMQLVQSGAEVKKPGASVKVSCKVSGYELTELSIHWVRQAPGKGLEWMGGFDPEDGETIYAQKFQGRVTMTGDTSTDTAYLELSSLRSEDTALYYCATGRYTSLATTYGFDYWGQGTLVTVSS", "VL": "EIVMTQSPATLSLSPGERATLSCRASQSVSSYLAWYQQKPGQAPRLLIYGASSRATGIPDRFSGSGSGTDFTLTISRLEPEDFAVYYCQQYDNWPYTFGQGTKLEIK"}, "B10": {"name": "E35-scFv HT28P (scFv, V domains shown)", "VH": "QMQLVQSGAEVKKPGASVKVSCKVSGYPLTELSIHWVRQAPGKGLEWMGGFDPEDGETIYAQKFQGRVTMTGDTSTDTAYLELSSLRSEDTALYYCATGRYTSLATTYGFDYWGQGTLVTVSS", "VL": "EIVMTQSPATLSLSPGERATLSCRASQSVSSYLAWYQQKPGQAPRLLIYGASSRATGIPDRFSGSGSGTDFTLTISRLEPEDFAVYYCQQYDNWPYTFGQGTKLEIK"}, "B11": {"name": "E35-scFv HT28L (scFv, V domains shown)", "VH": "QMQLVQSGAEVKKPGASVKVSCKVSGYLLTELSIHWVRQAPGKGLEWMGGFDPEDGETIYAQKFQGRVTMTGDTSTDTAYLELSSLRSEDTALYYCATGRYTSLATTYGFDYWGQGTLVTVSS", "VL": "EIVMTQSPATLSLSPGERATLSCRASQSVSSYLAWYQQKPGQAPRLLIYGASSRATGIPDRFSGSGSGTDFTLTISRLEPEDFAVYYCQQYDNWPYTFGQGTKLEIK"}, "B12": {"name": "E35-scFv HT28M (scFv, V domains shown)", "VH": "QMQLVQSGAEVKKPGASVKVSCKVSGYMLTELSIHWVRQAPGKGLEWMGGFDPEDGETIYAQKFQGRVTMTGDTSTDTAYLELSSLRSEDTALYYCATGRYTSLATTYGFDYWGQGTLVTVSS", "VL": "EIVMTQSPATLSLSPGERATLSCRASQSVSSYLAWYQQKPGQAPRLLIYGASSRATGIPDRFSGSGSGTDFTLTISRLEPEDFAVYYCQQYDNWPYTFGQGTKLEIK"}, "B13": {"name": "E35-scFv HT28S (scFv, V domains shown)", "VH": "QMQLVQSGAEVKKPGASVKVSCKVSGYSLTELSIHWVRQAPGKGLEWMGGFDPEDGETIYAQKFQGRVTMTGDTSTDTAYLELSSLRSEDTALYYCATGRYTSLATTYGFDYWGQGTLVTVSS", "VL": "EIVMTQSPATLSLSPGERATLSCRASQSVSSYLAWYQQKPGQAPRLLIYGASSRATGIPDRFSGSGSGTDFTLTISRLEPEDFAVYYCQQYDNWPYTFGQGTKLEIK"}, "B14": {"name": "E35-scFv HT28W (scFv, V domains shown)", "VH": "QMQLVQSGAEVKKPGASVKVSCKVSGYWLTELSIHWVRQAPGKGLEWMGGFDPEDGETIYAQKFQGRVTMTGDTSTDTAYLELSSLRSEDTALYYCATGRYTSLATTYGFDYWGQGTLVTVSS", "VL": "EIVMTQSPATLSLSPGERATLSCRASQSVSSYLAWYQQKPGQAPRLLIYGASSRATGIPDRFSGSGSGTDFTLTISRLEPEDFAVYYCQQYDNWPYTFGQGTKLEIK"}, "B15": {"name": "E35-scFv HT28C (scFv, V domains shown)", "VH": "QMQLVQSGAEVKKPGASVKVSCKVSGYCLTELSIHWVRQAPGKGLEWMGGFDPEDGETIYAQKFQGRVTMTGDTSTDTAYLELSSLRSEDTALYYCATGRYTSLATTYGFDYWGQGTLVTVSS", "VL": "EIVMTQSPATLSLSPGERATLSCRASQSVSSYLAWYQQKPGQAPRLLIYGASSRATGIPDRFSGSGSGTDFTLTISRLEPEDFAVYYCQQYDNWPYTFGQGTKLEIK"}, "B16": {"name": "E35-scFv HT28A (scFv, V domains shown)", "VH": "QMQLVQSGAEVKKPGASVKVSCKVSGYALTELSIHWVRQAPGKGLEWMGGFDPEDGETIYAQKFQGRVTMTGDTSTDTAYLELSSLRSEDTALYYCATGRYTSLATTYGFDYWGQGTLVTVSS", "VL": "EIVMTQSPATLSLSPGERATLSCRASQSVSSYLAWYQQKPGQAPRLLIYGASSRATGIPDRFSGSGSGTDFTLTISRLEPEDFAVYYCQQYDNWPYTFGQGTKLEIK"}, "B17": {"name": "E35-scFv HT28G (scFv, V domains shown)", "VH": "QMQLVQSGAEVKKPGASVKVSCKVSGYGLTELSIHWVRQAPGKGLEWMGGFDPEDGETIYAQKFQGRVTMTGDTSTDTAYLELSSLRSEDTALYYCATGRYTSLATTYGFDYWGQGTLVTVSS", "VL": "EIVMTQSPATLSLSPGERATLSCRASQSVSSYLAWYQQKPGQAPRLLIYGASSRATGIPDRFSGSGSGTDFTLTISRLEPEDFAVYYCQQYDNWPYTFGQGTKLEIK"}, "B18": {"name": "E35-scFv HT28N (scFv, V domains shown)", "VH": "QMQLVQSGAEVKKPGASVKVSCKVSGYNLTELSIHWVRQAPGKGLEWMGGFDPEDGETIYAQKFQGRVTMTGDTSTDTAYLELSSLRSEDTALYYCATGRYTSLATTYGFDYWGQGTLVTVSS", "VL": "EIVMTQSPATLSLSPGERATLSCRASQSVSSYLAWYQQKPGQAPRLLIYGASSRATGIPDRFSGSGSGTDFTLTISRLEPEDFAVYYCQQYDNWPYTFGQGTKLEIK"}, "B19": {"name": "E35-scFv HT28K (scFv, V domains shown)", "VH": "QMQLVQSGAEVKKPGASVKVSCKVSGYKLTELSIHWVRQAPGKGLEWMGGFDPEDGETIYAQKFQGRVTMTGDTSTDTAYLELSSLRSEDTALYYCATGRYTSLATTYGFDYWGQGTLVTVSS", "VL": "EIVMTQSPATLSLSPGERATLSCRASQSVSSYLAWYQQKPGQAPRLLIYGASSRATGIPDRFSGSGSGTDFTLTISRLEPEDFAVYYCQQYDNWPYTFGQGTKLEIK"}, "B20": {"name": "E35-scFv LS26L (scFv, V domains shown)", "VH": "QMQLVQSGAEVKKPGASVKVSCKVSGYTLTELSIHWVRQAPGKGLEWMGGFDPEDGETIYAQKFQGRVTMTGDTSTDTAYLELSSLRSEDTALYYCATGRYTSLATTYGFDYWGQGTLVTVSS", "VL": "EIVMTQSPATLSLSPGERATLSCRALQSVSSYLAWYQQKPGQAPRLLIYGASSRATGIPDRFSGSGSGTDFTLTISRLEPEDFAVYYCQQYDNWPYTFGQGTKLEIK"}},
  "data": [
    {"target": "T1, human GM-CSFRα, full length on cells (human, UniProt P15509 23-400)", "T1 sequence": "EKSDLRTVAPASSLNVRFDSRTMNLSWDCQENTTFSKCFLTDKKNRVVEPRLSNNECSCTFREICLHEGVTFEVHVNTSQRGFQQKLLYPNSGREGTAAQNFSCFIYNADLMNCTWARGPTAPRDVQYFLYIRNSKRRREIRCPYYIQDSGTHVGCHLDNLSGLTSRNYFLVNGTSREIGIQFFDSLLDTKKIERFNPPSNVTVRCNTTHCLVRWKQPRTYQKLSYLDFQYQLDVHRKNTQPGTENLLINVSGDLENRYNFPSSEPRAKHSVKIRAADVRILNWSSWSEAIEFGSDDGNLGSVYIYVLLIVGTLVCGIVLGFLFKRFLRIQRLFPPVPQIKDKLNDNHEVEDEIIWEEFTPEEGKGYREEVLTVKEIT", "assay": "cell-based or functional assay", "units": {"IC50, TF-1 cell proliferation": "µg/mL"}, "values": [
      {"binder": "B1", "IC50, TF-1 cell proliferation": 0.192},
      {"binder": "B2", "IC50, TF-1 cell proliferation": 0.199},
      {"binder": "B3", "IC50, TF-1 cell proliferation": 0.213},
      {"binder": "B4", "IC50, TF-1 cell proliferation": 0.215},
      {"binder": "B5", "IC50, TF-1 cell proliferation": 0.325},
      {"binder": "B6", "IC50, TF-1 cell proliferation": 0.35},
      {"binder": "B7", "IC50, TF-1 cell proliferation": 0.06},
      {"binder": "B8", "IC50, TF-1 cell proliferation": 0.08},
      {"binder": "B9", "IC50, TF-1 cell proliferation": 0.091},
      {"binder": "B10", "IC50, TF-1 cell proliferation": 0.093},
      {"binder": "B11", "IC50, TF-1 cell proliferation": 0.1},
      {"binder": "B12", "IC50, TF-1 cell proliferation": 0.11},
      {"binder": "B13", "IC50, TF-1 cell proliferation": 0.11},
      {"binder": "B14", "IC50, TF-1 cell proliferation": 0.11},
      {"binder": "B15", "IC50, TF-1 cell proliferation": 0.12},
      {"binder": "B16", "IC50, TF-1 cell proliferation": 0.13},
      {"binder": "B17", "IC50, TF-1 cell proliferation": 0.16},
      {"binder": "B18", "IC50, TF-1 cell proliferation": 0.17},
      {"binder": "B19", "IC50, TF-1 cell proliferation": 0.217},
      {"binder": "B20", "IC50, TF-1 cell proliferation": 0.044}
    ]}
  ]
}
